From patent US20240165140A1, “MEDICATION FOR INHIBITING DNA-PKCS” (TSINGHUA UNIVERSITY, priority 2017, published 2024) come the findings set out here.

For experiment [1], the system named is A549 tumor-bearing mice (normal P53 function). Put plainly: Survival of A549 tumor-bearing mice. It is filed as in vivo. The settings on record: A549, normal P53 function (FIG. 13B); compared with control group; administration as in Example 12, stopped after 25 days. The method, then: (§1) Tumor-bearing nude mice were randomly divided into four groups with 6 to 8 animals for each group, and different drug treatments were performed. […] Tumor volume was measured every other day. 2 to 4 weeks after administration, the mice were sacrificed and the tumor tissue was removed for further use.
(§2) H1299 and A549 cells were cultured in a vigorous and proliferative state, and tumor collection, grouping, and administration methods were the same as in Example 12. The administration was stopped after 25 days, and the survival of the mice was recorded daily, and the survival curve of the mice was plotted.

A further experiment deals with A549-shP53 tumor. Description: Subcutaneous tumor growth in nude mice, A549-shP53. Format: in vivo. The settings on record: A549-shP53, Day 27; compared with control group; Endostatin 20 mg/kg i.p. once a day, Etoposide 2 mg/kg i.p. once every two days. The method, then:
as §1

For another experiment, the system named is H1299-NC tumor. Put plainly: Subcutaneous tumor growth in nude mice, H1299-NC. Format: in vivo. As to conditions: Day 19, compared with control group, Endostatin 20 mg/kg i.p. once a day, Etoposide 2 mg/kg i.p. once every two days. As for the experimental part:
as §1

The subject of experiment [2] is mRNA levels of BAX, NOXA, PUMA, and P21. Description: Real-time PCR of pro-apoptotic molecules, P53-deficient tumor cells. Format: cell-based. The settings on record: H1299-NC, A549-shP53; Endostatin 10 μg/ml added 1 h before Etoposide 1 μM, 16 h. The method, then:
After the cells were treated as described above, the total RNA of the cells was extracted, and the relative changes in mRNA levels of BAX, NOXA, PUMA, and P21 in the cells were detected by real-time PCR.
In general terms: Real-time PCR tracks product formation cycle by cycle.

For a further experiment, the system named is H1299 mouse tumor model. Put plainly: Survival of H1299 tumor-bearing mice. The settings on record: administration as in Example 12, stopped after 25 days. It is filed as in vivo. The method, then: as §1, §2
In a further experiment the test system is A375 cells. Description: CCK8 cell activity, melanoma A375. It is filed as cell-based. As to conditions: A375 (P53 wild type); operation process as in Example 5. As for the experimental part:
(§3) First, a lentivirus kit (purchased from Shanghai Genepharma) was used to construct a P53 stably overexpressing H1299 cell line (H1299-P53) and a P53 stably knockdown A549 cell line […]. The P53 sequence targeted by the shRNA used to knock down P53 in A549 cells was 5′-[…]-3′ (SEQ ID NO: 4). Virus transfection and the construction of stable cell lines were performed according to the kit instructions. […] After treatment for 12 hours, the drug-containing medium was replaced with a normal medium and the cells were further cultured for 72 hours. Cell activity was measured according to the instructions of the CCK8 kit (Dojindo, Tokyo, Japan).
This example used two cell lines of another tumor type (melanoma), the MDA-MB-435S (P53 mutant) and A375 (P53 wild type) cell lines, to verify the regulatory function of Endostatin on the chemotherapeutic sensitivity of other types of tumor cells with different P53 status. Operation process was the same as in Example 5.

In experiment [3] the test system is PCNA and DNA-PKcs protein in H1299-NC and A549-shP53 tumor tissues. Put plainly: Immunofluorescence of PCNA and DNA-PKcs in tumor tissue, P53-deficient mouse tumor model. It is filed as in vivo, nude mice. As to conditions: H1299-NC and A549-shP53 tumors of Example 12; quantitative immunofluorescence. The method, then:
as §1
The tumor tissue removed in Example 12 was fixed and embedded, and then sectioned. PCNA (a marker molecule indicating the vigorous proliferation status of tumor cells) and DNA-PKcs protein in tumor tissues were stained by immunofluorescence technique, and were observed and imaged with a laser confocal microscope (Nikon A1). The experimental results are shown in FIG. 14A-14D, in which blue represents the nucleus of DAPI-stained cells, green represents the DNA-PKcs protein, and red represents the PCNA protein. Taking the H1299-NC tumor tissue shown in FIG. 14A as an example, the first column on the left represents DNA-PKcs single staining, and the green area represents the DNA-PKcs protein expression level. The second column on the left represents the results of DNA-PKcs (green) merged with nucleus (blue), and the overlapping part is shown in cyan. The third column on the left represents PCNA single staining, and the red area represents the PCNA protein expression level, indicating the strength of tumor cell proliferation. […]

Another experiment has as its system H1299-P53 tumor. Put plainly: Subcutaneous tumor growth in nude mice, H1299-P53. Format: in vivo. The method, then:
as §1

Another experiment has as its system H1299 and A549 cells. Put plainly: Annexin V-FITC/PI apoptosis by flow cytometry with DNA-PKcs siRNA knockdown. Format: cell-based. As to conditions: Endostatin 10 μg/ml added 1 h before Etoposide (10 μM for H1299, 1 μM for A549, 16 h). The method, then: In this example, tumor cells (including H1299 and A549 cells) were divided into eight treatment groups. In the first four groups, cells were transfected with control siRNA, and in the last four groups, cells were transfected with siRNA that specifically knocked down DNA-PKcs. The siRNA sequence of DNA-PKcs is: forward 5′-[…]-3′ (SEQ ID NO: 5), reverse 5′-[…]-3′ (SEQ ID NO: 6). The siRNA transfection method was performed according to the instructions of the transfection reagent Lipofectamine 2000. Then, in the eight groups, the cells were treated with drugs. […] Cells were collected and operations were performed according to the instructions of Annexin V-FITC/PI Apoptosis Detection Kit. Apoptosis was detected by flow cytometry. A549 cells were P53 wild-type cells, and H1299 cells were P53-deficient cells.
(In general: In flow cytometry, cells or beads pass a laser one at a time.)

Experiment [4] relates to P53-deficient tumor cells (H1299-NC and A549-shP53). Put plainly: CCK8 cell activity, P53-deficient tumor cells. Format: cell-based. The method, then: as §3
In this example, another chemical drug, Doxorubicin, was used to verify that Endostatin can enhance the sensitivity of P53-deficient tumor cells to chemotherapy. Operation process was the same as in Example 5.

Experiment [5] concerns DNA-PKcs, PARP, γH2AX and Caspase-3 signaling pathways. Put plainly: Immunoblotting of DNA damage and apoptotic pathway, P53-deficient tumor cells. It is filed as cell-based. The settings on record: H1299-NC, A549-shP53; Endostatin 10 μg/ml, Etoposide 10 μM 16 h, z-DEVD-fmk 10 μM; Endostatin and z-DEVD-fmk added 1 h before Etoposide. A general note: A western blot detects proteins with antibodies after separation by electrophoresis.
Source text: In this example, tumor cells (H1299-NC, H1299-P53, A549-NC, A549-shP53) were divided into six treatment groups.

B1: Endostatin: recombinant natural human endostatin expressed by E. coli, from Protgen, SEQ ID NO: 2 (protein)
chain: MHSHRDFQPVLHLVALNSPLSGGMRGIRGADFQCFQQARAVGLAGTFRAFLSSRLQDLYSIVRRADRAAVPIVNLKDELLFPSWEALFSGSEGPLKPGARIFSFDGKDVLRHPTWPQKSVWHGSDPNGRRLTESYCETWRTEAPSATGQASSLLGGRLLGQSAASCHHAYIVLCIENSFMTASK
modifications: The amino acid sequence of natural human endostatin
In the case of B1, the “Survival time of mice” value in experiment [1] is given as “could prolong the survival time of the mice to some extent”. Also, the tumor suppression rate in the experiment with A549-shP53 tumor was found to be 37.1%; with H1299-NC tumor it was 19.6%; in the experiment with H1299-P53 tumor (H1299-P53, Day 19, compared with control group, Endostatin 20 mg/kg i.p. once a day, Etoposide 2 mg/kg i.p. once every two days), 33.8%. For the same molecule, the “Effect on up-regulation of pro-apoptotic molecules by Etoposide (mRNA)” value in experiment [2] was “could enhance Etoposide to up-regulate pro-apoptotic molecules”. The “median survival time longer than that of the control group” value with H1299 mouse tumor model stood at 24.2%. In the experiment on A375 cells, the “Effect on the inhibitory effect of Etoposide on cell activity” value is “did not significantly enhance the inhibitory effect of Etoposide”. For the same molecule, the “Tumor cell proliferation (PCNA) and protein level of DNA-PKcs in tumor tissue” value in [3] is “can attenuate tumor cell proliferation to a certain extent and reduce the protein level of DNA-PKcs”. Further, in the experiment on H1299-P53 tumor (H1299-P53, Endostatin 20 mg/kg i.p. once a day and Etoposide 2 mg/kg i.p. once every two days), the “Effect on the inhibitory effect of Etoposide on tumor growth” value is “could not enhance the inhibitory effect of Etoposide on tumor growth”. For the same molecule, the “Role of Endostatin in promoting apoptosis induced by Etoposide after knocking down DNA-PKcs” value in the experiment on H1299 and A549 cells (DNA-PKcs siRNA) is “weakened”. Also, in the experiment with H1299 and A549 cells (control siRNA), the Etoposide-induced apoptosis entry is listed as “would further promote Etoposide-induced apoptosis”. The “Effect on toxicity of Etoposide to tumor cells (cell activity)” value in experiment [4] (Endostatin 10 μg/ml pretreatment 1 h, Etoposide 0, 0.1, 1, 10 μM, 12 hours treatment, 72 hours further culture) was “could enhance the toxicity of Etoposide to tumor cells”. Moreover, the “Effect on toxicity of Doxorubicin to tumor cells (cell activity)” value in experiment [4] (Operation process as in Example 5, Doxorubicin instead of Etoposide) was “could enhance the toxicity of Doxorubicin to tumor cells”. Also, in experiment [5], the “DNA-PKcs, PARP, γH2AX and Caspase-3 signaling pathway levels” value is “did not affect the above-mentioned signaling pathway levels”.
